This note sets out measurements from publication PMC6854716, “Redesigning N-glycosylation sites in a GH3 β-xylosidase improves the enzymatic efficiency” (Biotechnology for Biofuels, 2019).

Data set [1] has as its system T1, O=[N+]([O-])c1ccc(O[C@@H]2OC[C@@H](O)[C@H](O)[C@H]2O)cc1.
T1 construct: homologous secreted expression in A. nidulans A773 (pEXPYR, glaA promoter, A. niger glucoamylase signal peptide); purified by DEAE and Superdex 200; N-glycosylated at N63, N340, N408, N419, N458, N621, N760
The data set can be described thus: purified protein. It is filed as biochemical, Aspergillus nidulans. The conditions noted are these: 0.05 M ammonium acetate pH 5.0, 60 °C, 1–20 mM substrate.

The nature of data set [2]: western blot of crude extracellular extract, polyclonal anti-BxlB. The conditions noted are these: glycan lost; control: BxlBwt. A general note: Immunoblotting shows a protein as a band on a membrane.
Data set [3] is described as follows: CD thermal melt, 20-100 °C. The conditions noted are these: glycan lost; control: BxlBwt.
Data set [4] in a line: far-UV CD secondary structure. The conditions noted are these: glycan lost; control: BxlBwt.
Data set [5] can be described thus: Michaelis-Menten kinetics, purified enzyme, pH 5.0, 60 °C. The conditions noted are these: glycan lost; control: BxlBwt.

In the case of “BxlB^wt (GH3 β-xylosidase BxlB) (Aspergillus nidulans FGSC A4; N340Q/N408Q/N419Q/N621Q/N760Q)”, in data set [1], the Km (commonly the substrate concentration at which the rate is half of its maximum) was determined as 2910 ± 180 µM; the Vmax (usually the top rate of the reaction or transport when substrate is in excess) stood at 21.9 µmol/min/mg; the kcat – broadly, the number of substrate molecules converted per active site and unit of time at saturation – was 30.1 s⁻¹; the kcat/Km (commonly the turnover number divided by the Michaelis constant) amounted to 10300 M⁻¹ s⁻¹.
Turning to “BxlB^wt (GH3 β-xylosidase BxlB) (Aspergillus nidulans FGSC A4; N340Q/N408Q/N419Q/N621Q)”, in data set [1], the Km came out at 2490 ± 430 µM, the Vmax amounted to 17.3 µmol/min/mg, the kcat is 23.7 s⁻¹ and the kcat/Km amounted to 9510 M⁻¹ s⁻¹.
For “BxlB^wt (GH3 β-xylosidase BxlB) (Aspergillus nidulans FGSC A4; N340Q/N408Q/N419Q/N458Q/N621Q/N63Q)”, in data set [1], the Michaelis constant (Km) was determined as 3190 ± 220 µM, the Vmax worked out at 3.42 µmol/min/mg, the kcat stood at 4.37 s⁻¹ and the kcat/Km stood at 1270 M⁻¹ s⁻¹.
For “BxlB^wt (GH3 β-xylosidase BxlB) (Aspergillus nidulans FGSC A4; N340Q/N408Q/N419Q/N621Q/N63Q)”, in data set [1], the Km is 2810 ± 110 µM, the Vmax was 20.5 µmol/min/mg, the kcat worked out at 28 s⁻¹ and the kcat/Km was found to be 9940 M⁻¹ s⁻¹.
Turning to “BxlB^wt (GH3 β-xylosidase BxlB) (Aspergillus nidulans FGSC A4; N340Q/N408Q/N419Q/N621Q/N63Q/N760Q)”, in data set [1], the Km worked out at 2710 ± 210 µM, the Vmax came out at 6.08 µmol/min/mg and the kcat is 3.71 s⁻¹.
“BxlB^wt (GH3 β-xylosidase BxlB) (Aspergillus nidulans FGSC A4; N340Q/N408Q/N419Q/N458Q/N621Q/N63Q/N760Q)”: in data set [1], the Km is 2360 ± 110 µM, the Vmax was determined as 10.1 µmol/min/mg, the catalytic constant (kcat) came to 13.9 s⁻¹ and the kcat/Km was found to be 5870 M⁻¹ s⁻¹.
With “BxlB^wt (GH3 β-xylosidase BxlB) (Aspergillus nidulans FGSC A4; N340Q/N408Q/N419Q/N458Q/N621Q)”, in data set [1], the Km came to 9920 ± 1050 µM, the Vmax was found to be 4.12 µmol/min/mg, the kcat came out at 5.64 s⁻¹ and the kcat/Km worked out at 570 M⁻¹ s⁻¹.

B1: BxlB (GH3 β-xylosidase): BxlBN7 (protein)
parent chain: MAVFKSWNLALLSSLFIPALCQSNYPDCTTGPLSELPICDTSLSPLERAKSLVSALTLEEKINNTGHEAAGSSRLGLPAYNWWNEALHGVAEKHGVSFEESGDFSYATSFPAPIVLGAAFNDALIRRVAEIISTEARAFSNSDHAGIDYWTPNVNPFKDPRWGRGQETPGEDPLHCSRYVKEFVGGLQGDDPEKPKVVATCKHLAAYDLEEWGGVSRFEFDAKVSAVDLLEYYLPPFKTCAVDASVGAFMCSYNALNGVPACADRYLLQTVLREHWGWEGPGHWVTGDCGAVERIQTYHHYVESGPEAAAAALNAGVDLDCGTWLPSYLGEAERQGLISNETLDAALTRLYTSLVQLGYFDPAEGQPLRSLGWDDVATSEAEELAKTVAIQGTVLLKNIDWTLPLKANGTLALIGPFINFTTELQSNYAGPAKHIPTMIEAAERLGYNVLTAPGTEVNSTSTDGFDDALAIAAEADALIFFGGIDNTVEEESLDRTRIDWPGNQEELILELAELGRPLTVVQFGGGQVDDSALLASAGVGAIVWAGYPSQAGGAGVFDVLTGKAAPAGRLPITQYPKSYVDEVPMTDMNLQPGTDNPGRTYRWYEDAVLPFGFGLHYTTFNVSWAKKAFGPYDAATLARGKNPSSNIVDTFSLAVTNTGDVASDYVALVFASAPELGAQPAPIKTLVGYSRASLIKPGETRKVDVEVTVAPLTRATEDGRVVLYPGEYTLLVDVNDEYPTAKFEIKGDVQVLEKFPLSGNDSD
B1: the expression_or_secretion result in data set [2] is “decreases”. Moreover, the “stability_or_folding, Tm” value in data set [3] was “decreases”. In data set [4], the structure_or_conformation result is “no change”. Besides, the “enzymatic_activity, kcat_Km” value in data set [5] is “decreases, 1.27 vs 6.34”.

B2: BxlB (GH3 β-xylosidase): BxlBN1;5 (protein)
parent chain: MAVFKSWNLALLSSLFIPALCQSNYPDCTTGPLSELPICDTSLSPLERAKSLVSALTLEEKINNTGHEAAGSSRLGLPAYNWWNEALHGVAEKHGVSFEESGDFSYATSFPAPIVLGAAFNDALIRRVAEIISTEARAFSNSDHAGIDYWTPNVNPFKDPRWGRGQETPGEDPLHCSRYVKEFVGGLQGDDPEKPKVVATCKHLAAYDLEEWGGVSRFEFDAKVSAVDLLEYYLPPFKTCAVDASVGAFMCSYNALNGVPACADRYLLQTVLREHWGWEGPGHWVTGDCGAVERIQTYHHYVESGPEAAAAALNAGVDLDCGTWLPSYLGEAERQGLISNETLDAALTRLYTSLVQLGYFDPAEGQPLRSLGWDDVATSEAEELAKTVAIQGTVLLKNIDWTLPLKANGTLALIGPFINFTTELQSNYAGPAKHIPTMIEAAERLGYNVLTAPGTEVNSTSTDGFDDALAIAAEADALIFFGGIDNTVEEESLDRTRIDWPGNQEELILELAELGRPLTVVQFGGGQVDDSALLASAGVGAIVWAGYPSQAGGAGVFDVLTGKAAPAGRLPITQYPKSYVDEVPMTDMNLQPGTDNPGRTYRWYEDAVLPFGFGLHYTTFNVSWAKKAFGPYDAATLARGKNPSSNIVDTFSLAVTNTGDVASDYVALVFASAPELGAQPAPIKTLVGYSRASLIKPGETRKVDVEVTVAPLTRATEDGRVVLYPGEYTLLVDVNDEYPTAKFEIKGDVQVLEKFPLSGNDSD
As for B2, in data set [2], the expression_or_secretion result is “decreases”. In addition, the “stability_or_folding, Tm” value in data set [3] is recorded as “decreases, 61.1 vs 63.8”. Moreover, the structure_or_conformation result in data set [4] is given as “no change”. Further, in data set [5], the “enzymatic_activity, kcat_Km” value is “increases, 10.33 vs 6.34”.

B3: BxlB (GH3 β-xylosidase): BxlBnon-glyc (protein)
parent chain: MAVFKSWNLALLSSLFIPALCQSNYPDCTTGPLSELPICDTSLSPLERAKSLVSALTLEEKINNTGHEAAGSSRLGLPAYNWWNEALHGVAEKHGVSFEESGDFSYATSFPAPIVLGAAFNDALIRRVAEIISTEARAFSNSDHAGIDYWTPNVNPFKDPRWGRGQETPGEDPLHCSRYVKEFVGGLQGDDPEKPKVVATCKHLAAYDLEEWGGVSRFEFDAKVSAVDLLEYYLPPFKTCAVDASVGAFMCSYNALNGVPACADRYLLQTVLREHWGWEGPGHWVTGDCGAVERIQTYHHYVESGPEAAAAALNAGVDLDCGTWLPSYLGEAERQGLISNETLDAALTRLYTSLVQLGYFDPAEGQPLRSLGWDDVATSEAEELAKTVAIQGTVLLKNIDWTLPLKANGTLALIGPFINFTTELQSNYAGPAKHIPTMIEAAERLGYNVLTAPGTEVNSTSTDGFDDALAIAAEADALIFFGGIDNTVEEESLDRTRIDWPGNQEELILELAELGRPLTVVQFGGGQVDDSALLASAGVGAIVWAGYPSQAGGAGVFDVLTGKAAPAGRLPITQYPKSYVDEVPMTDMNLQPGTDNPGRTYRWYEDAVLPFGFGLHYTTFNVSWAKKAFGPYDAATLARGKNPSSNIVDTFSLAVTNTGDVASDYVALVFASAPELGAQPAPIKTLVGYSRASLIKPGETRKVDVEVTVAPLTRATEDGRVVLYPGEYTLLVDVNDEYPTAKFEIKGDVQVLEKFPLSGNDSD
As for B3, the expression_or_secretion entry in data set [2] is given as “decreases”. The structure_or_conformation entry in data set [4] is “no change”. For the same molecule, the “enzymatic_activity, kcat_Km” value in data set [5] was “decreases, 5.87 vs 6.34, BxlBnon-glyc catalytic efficiency was reduced by 7%”.

B4: BxlB (GH3 β-xylosidase): BxlBN1;7 (protein)
parent chain: MAVFKSWNLALLSSLFIPALCQSNYPDCTTGPLSELPICDTSLSPLERAKSLVSALTLEEKINNTGHEAAGSSRLGLPAYNWWNEALHGVAEKHGVSFEESGDFSYATSFPAPIVLGAAFNDALIRRVAEIISTEARAFSNSDHAGIDYWTPNVNPFKDPRWGRGQETPGEDPLHCSRYVKEFVGGLQGDDPEKPKVVATCKHLAAYDLEEWGGVSRFEFDAKVSAVDLLEYYLPPFKTCAVDASVGAFMCSYNALNGVPACADRYLLQTVLREHWGWEGPGHWVTGDCGAVERIQTYHHYVESGPEAAAAALNAGVDLDCGTWLPSYLGEAERQGLISNETLDAALTRLYTSLVQLGYFDPAEGQPLRSLGWDDVATSEAEELAKTVAIQGTVLLKNIDWTLPLKANGTLALIGPFINFTTELQSNYAGPAKHIPTMIEAAERLGYNVLTAPGTEVNSTSTDGFDDALAIAAEADALIFFGGIDNTVEEESLDRTRIDWPGNQEELILELAELGRPLTVVQFGGGQVDDSALLASAGVGAIVWAGYPSQAGGAGVFDVLTGKAAPAGRLPITQYPKSYVDEVPMTDMNLQPGTDNPGRTYRWYEDAVLPFGFGLHYTTFNVSWAKKAFGPYDAATLARGKNPSSNIVDTFSLAVTNTGDVASDYVALVFASAPELGAQPAPIKTLVGYSRASLIKPGETRKVDVEVTVAPLTRATEDGRVVLYPGEYTLLVDVNDEYPTAKFEIKGDVQVLEKFPLSGNDSD
Turning to B4, in data set [2], the expression_or_secretion entry is recorded as “decreases”. In addition, in data set [3], the “stability_or_folding, Tm” value is on record as “decreases”. In data set [4], the structure_or_conformation entry was “no change”. Moreover, the “enzymatic_activity, kcat_Km” value in data set [5] is reported as “decreases, 0.57 vs 6.34”.

B5: BxlB (GH3 β-xylosidase): BxlBN5;7 (protein)
parent chain: MAVFKSWNLALLSSLFIPALCQSNYPDCTTGPLSELPICDTSLSPLERAKSLVSALTLEEKINNTGHEAAGSSRLGLPAYNWWNEALHGVAEKHGVSFEESGDFSYATSFPAPIVLGAAFNDALIRRVAEIISTEARAFSNSDHAGIDYWTPNVNPFKDPRWGRGQETPGEDPLHCSRYVKEFVGGLQGDDPEKPKVVATCKHLAAYDLEEWGGVSRFEFDAKVSAVDLLEYYLPPFKTCAVDASVGAFMCSYNALNGVPACADRYLLQTVLREHWGWEGPGHWVTGDCGAVERIQTYHHYVESGPEAAAAALNAGVDLDCGTWLPSYLGEAERQGLISNETLDAALTRLYTSLVQLGYFDPAEGQPLRSLGWDDVATSEAEELAKTVAIQGTVLLKNIDWTLPLKANGTLALIGPFINFTTELQSNYAGPAKHIPTMIEAAERLGYNVLTAPGTEVNSTSTDGFDDALAIAAEADALIFFGGIDNTVEEESLDRTRIDWPGNQEELILELAELGRPLTVVQFGGGQVDDSALLASAGVGAIVWAGYPSQAGGAGVFDVLTGKAAPAGRLPITQYPKSYVDEVPMTDMNLQPGTDNPGRTYRWYEDAVLPFGFGLHYTTFNVSWAKKAFGPYDAATLARGKNPSSNIVDTFSLAVTNTGDVASDYVALVFASAPELGAQPAPIKTLVGYSRASLIKPGETRKVDVEVTVAPLTRATEDGRVVLYPGEYTLLVDVNDEYPTAKFEIKGDVQVLEKFPLSGNDSD
As for B5, the expression_or_secretion result in data set [2] is reported as “decreases”. Further, in data set [3], the “stability_or_folding, Tm” value is recorded as “decreases, 55.1 vs 63.8”. Besides, the structure_or_conformation entry in data set [4] is “no change”. The “enzymatic_activity, kcat_Km” value in data set [5] was “increases, 9.94 vs 6.34”.
